# Test results published in a protein production outcome set (Wang et al. 2014).
# Assay: label from the status in PepcDB records
row,Sequence,protein production
1,MKYTQSFCFVSVIVLSSSVHLHGQNNKMNVLLIIADDMRPELGCYGIEDIVTPRLDSLARYATVFQNAYCNIPVSGASRASLFTGMYPRYPNRFTAFDASAEKDCPEALSLPECFKKNGYYVVSNGKVFHNITDHADSWSEAPWRVHPDGYGKDWAEYNKWELWQNEESSRYVHPKTLRGPFCESADVADTTYIDGRVAQKTIADLRRLHKKEKPFFLACGFWKPHLPFNAPKKYWDLYRREEIHLAQNPYRPKALPKQVTSSGEIRGYGKFVTTKDETFQREAKHGYYACVSYIDAQIGLILDELDRLGLSENTIVVILGDHGWHLGEHGFWGKHNLMNHATRAPLIVRVPHCRGGKAKGIVEFVDIYPTLCELCGVPMPKDQLQGKSFVPILQDSGKKTKQYAFIQWKGGYNIVSEQYSSTIWLQGDSVVARMIFDRQLDASENENKVHCPYLSRERDKLEAQIKIRKSQLLEHHHHHH,failed
2,MKYTVYLFDFDYTLADSSRGIVTCFRSVLERHGYTGITDDMIKRTIGKTLEESFSILTGITDADQLESFRQEYSKEADIYMNANTILFPDTLPTLTHLKKQGIRIGIISTKYRFRILSFLRNHMPDDWFDIIIGGEDVTHHKPDPEGLLLAIDRLKACPEEVLYIGDSTVDAGTAAAAGVSFTGVTSGMTTAQEFQAYPYDRIISTLGQLISVPEDKSGCPL,not failed
3,MLAAGEGKRMGACKPLLPLGASTVLAHVAKTLLPAINGPLVVVTGHHGDAVTAEALRLSLETAENTTPQDGMFSSVRTGIAHIVGRVDGVLVLPADIPFVRTATCALVVEAFRRHRAAVTYPTLCGERGHPPLLDADTMRAVLASSGDGGLRGVLLALERQGGTTHDVAVADEGIVTDMDTPADHAQLVARHPLRHIPTPREREALLEMAGTPARVRAHCRMVARAALAMAAHLEATRRGFISPFARQSAPHGISTSGAHAEPRSVPASTTTHAVHAEGNTTLPHTATAHVACPPPDVTTGPMPTCQPGHMPDHMPGTARDAAQQAPAATASPQRLDRPLIHAAATLHDICKGTQRHEAAGGALLTRHGFPEVGSIIAAHRDIAPQAGPEIDEAALVMLADKYVRGVSLIPVEERFDERLREWAHRPDVACDIAARKARVLMVRDLFESETATELFPLLQRKVRRGTFLEHHHHHH,failed
4,MLACAIALRLAAAVAAPVDSPTVDVAPPAPAEVAPPGPGRTAAPDLSAPPPPPADRPGPWRVYGAAAAGAAASDVLFAGIFAIGMVQLFGDLWDGEASADAGGLTLALVGLGGFLAVTPAVTVWAAQRVAGRERTAAAYWACFGVRLLGFAAANAFPAATLATELVLAPWVVSRIVMSGAPAATPLRPEVPAPAGADGPATRARPLRDPALAWR,failed
5,MLAERRPAVTPTDGAQVLKALDAQAALLPYALGVFAVSLPLFVWVGSFAANPLWMTASFAIFAINWGVFYAAVSWIRDEPSQDLARRARVQVLCGVLWALAVMQISAFAHNAGPARETLLLLATAGAVLCAFFAAPYLPGLLIIAPLAAAGPLLAQFSSADSRHAGELTFGATALAMTLALILNRMFRRQHDLAISHEQLVVERLRVLEAAERTARSKSDIVATLSHEIRNGLTGVTHVLAAAAGRGGRAAPSREQLNAALDAAQDLIAVLNATLDSETAESGRLQVDARPFDPVRLVQDLALLDKPHAAAKGLELSVHVDPLLRERAKGAAIADALRTRQIVSNLLGNAVKYTVRGRVEVRLELRDDRIAIEVADTGPGLSTEELEQAFEPFRRVERTGAGVNGAGLGLSLSRQLARLMGGALEARSAVGVGSCFTLTLPFDLGAKDEQAEALDTAVAEASGAPRALRVLIAEDDALNAAMLRAVLEQLGHQVVHAANGRRAADLAKIAEFDLLMLDHRMPVMDGPEAASSLRQGDGPNRQTPIVAVIDGDAEEAAEFLEAGAEIVLRKPVSVAGVARALADAAALERTDPAKVAA,failed
6,MLAIRRGASMPPLNRSDDLMPGIDEIPERRDEVSLGDLLLEVLRFYQQFGRLLIPLAVLCGVLAGVVVATRPLYAVTALLETPQMSLEQWRKLQPMLADRQLVAASLASMTELPPEQRERLQRAFVLKKYWDTRVTYRSAVERDDIRQQVNIDAKSVGALGLEVSLYARDDAAANQQLDAIAQHVRQVVLWGGLRDYLDSLRQQTLEQRPQLQIDQIQQRYAIEQNERQAADMQQLLERYPELRRNEVNTVVSVGDGGGRYLSPLAQIVALQSTIAGTRTTLRQVERELEQLDGKQRFLARVDQRAPGLHLGRALADWVQSCRRAVFGSGTPSGSALSQVASEIDLALSQQRWRAQLVRYRAIPALSPAPVPSRRPALVALAVFLGVLLVASLGLAMYVIARRNGDRHASWSAHADPLFAWLPQRMRGLLLGPTDARPLGSG,failed
7,MLAKVLKKRGAVLRGDFVLSSGRRSSVYIDMRRLLGDESSYSVALDLLLEVGGQDLARSSAVIGVATGGLPWAAMLALRLSKPLGYVRPERKGHGTLSQVEGDPPKGRVVVVDDVATTGTSIAKSIEVLRSNGYTVGTALVLVDRGEGAGELLARMGVRLVSVATLKTILEKLGWGGE,not failed
8,MLAPERIHPALWRATQLAHGPTRKLPTGYADLSAQLPGGGWPLGALVELLLPQPGSGEIRLLRPALAQLEARRAIALVQPPHAPHIASWASWRLDPRQLLWVAPERPADALWAAEQILKAGSCAALLCWLPQVRPESLRRLHLAAQGGDALFVALRPAAAEQHASPAVLRLALAPAPGGLSIRIVKRRGPACEHPVHVGLEAGAGLSVFPAPHAPLDRRLPAQPVAGRRTPALVSLEHHHHHH,not failed
9,MLARALFFVVLSTATFLFLWQFPSTGAQSIPHLDKLVHFGIFFVLALTFHRAFALSAKLSLLILVCYGFLIEIAQSYAPGRSADVYDWLADASGVVAYFILHHLLSKKSR,failed
10,MLASLEARYPGLAFAWPRPGVLEITFRGEKLXAMPPALHRGLARVWRDLEAVEGVRAVLLRGEGGVFSAGGSFGLIEEMRASHEALLRVFWEARDLVLGPLXFPRPVVAAVEKVAVGAGLALALAADIAVVGKGTRLLDGHLRLGVAAGDHAVLLWPLLVGMAKAKYHLLLXEPLTGEEAERLGLVALAVEDEKVYEKALEVAERLAQGPKEALHHTKHALXHWYRSFLPHFELSLALEFLGFSGKELEEGLKALKEKRPPEFP,not failed
11,MLAVFTKSVAGVKLFGMMYPVLERSENLPTDDSIDAIKEIAKALQSVLFKLHINGYSSLLHPLGVNNVDFILKFYVVKDGENDSLRVINVYHKLCGEAEDSWLEIVNNFRGEFSFISMMQRIEASLLLINAVKCYVVSDTLGNLFFRNDYNFGTGGSVCYVHIFGGHYLASGKGLRKLQLPLMETKMEPLIPDDIV,failed
12,MLAVIEKQGNEYVVQFERYFSYSIEEVWSVLTENSKLKKWMSNLQIESLKTGGIIKFDMMDGSFINIDILECQVNAVLEFTWDKDCVRFEIHKEENDTLLLLKEYIHELTDHTPKDIAGWHICLDLFSSVLEGKEKEFSKDEWKQWFEIYKDKVLELRA,failed
13,MLAVKIFDRLPLALVITNASHSVLYANDAFKLMVCLQPDDILAFNPEQFFSPSEPHEIASLFNHLSEGKMWQGELVGLRNNGETFYLDLTVTVFRESHSADLGFAWLFSDVSERKKAAQLEHHHHHH,not failed
14,MLCCLRIENFALIDHLELDLQAGLMVLTGETGAGKSIILDALDLALGGKATARLIRAKNDQGDATGERAFIEATFSLTPSIKQWLQSQDIDLLEDETVICSRELSLTRTGLRSRSRVNGIILNQGLMAELRAQLLEITAQGQTVELLIPERQRILLDSYGGSQVQQQRQLVNLAYQTYLKAKQLLESRRTSEQERLQRLDLLQYQLQELRDAHLEDSEELETLQQEGDRLSHVVELQQLSYQAHQILYQNDDPETPAVADLLGEAENLLKEMVDYDTQLNGILD,failed
15,MLCLHTSVHCYENPSVIFSLIYIIICKYMYYNILSATTIFILYSQIVGQNGDDIIKYYHSFLNYVIIFYMSRH,failed
16,MLDDLDLFVAIVDAGSLSAAAKRMAMPAATLTRRLQALEAELGCKLLNRSARRLVPTNEGWQYYEQCKPLLAALRQAADSLDATLNRVEGVVRAMAPVSMANSLLLPVWQRLLQRHPAVRLELVLSNGTEDVWAMGGDLAIRVGPQPDSQLNQRKLGQVSAVLAAAPSYLEARGRPQAFEQLAGHDLLLTTPLQNWKLHRVDGDEERSLPDGARLLVNDMLLGVRMAEAGCGVVLCPLSQCHRELADGRLERILQDWWIPPRPVYAVWPQRRAMPARVRALLDILLEFAAEEPLLRS,failed
17,MLDLNEFLTRKMKIDVLLKEHGWDVGDRSKVVLEVDTIQSDIKKQDYRQVNETRRNDAESKYADYLLLDSTGKPLAIIEAKRTTKDPILGQKQAEEYADDIKTQTGEEVFIFLSNGYQIWLWDRERYGPRQIKGFYSPEDLERLLYQRKYSERETEIDIDGNIVDRAKSVEVATRVVEHIHKGHRKALIVMATGTGKTRVAMAIIDQLMRESRVQRVLFLTDRKALRKQAYEKGYLRYFPEETKEIIHSGNYNSNCRLYVSTIQTFQEIYNQKDRNGKYRISPGAFDLIFSDEAHRSIYSKWKGIFTYLDAIQIGLTATPADMVDRDTFRFFECHDDIPTALYSYEDAVRDGVLCDFRKNISGARTYFQIEGLKPENLTEGEREELIKKGIDPDDINFEGTELEKKVAVKGTSEAIVREFMENCLTDQAGTLPAKTIFFAISKLHAKRLWEAFEKLYPEHKGKLARIIVSEDSRAQQLIKDFEEKPFPRIAISVDMMDTGIDVPEVCNLVFAKPVFSKIKFWQMLGRGTRADGACEHREWLPDGKKEYFKVFDFWNNFEYWNMNPEGAKNESAEAITNRIFLTRLKQLGELMQRRDPASEKAAEKVKAKIISDIESLPRDSVNVREHLQDMEKALSPKLWDNIAIDPVEFLQKKIMPLMKFKPDVNLKEATFTLRCEKLAYALLENDKAEIDRLKTSIAEMVDRLPRTLDSVRAREALMDNVLSRSFWETVSFEDVQLLLSDLAPLMPYMAKEPRETIVIDMSDIIAERKKWEISDGNDPSYVEAYRREVEARIKALAETHPAVRKIKNNEPLTDYDLEQLEETLLNADLTPDNPKLSSHASLSDLYPSRQASLVDFIRQVLGLYSSPSPDALIKDAFQTYIIGNNKHYSSDQLNFILTLQTVFLKKKHIEYSTLWLPPFTNFGTTAPFPMFTQEELNSFIDICKGVEKDIFM,not failed
18,MLDLVNQLELDSQMKQFKLVSQMTRQDVIILDEPGYLPFSQKRGALLFHLMSQLHENTSVIITTNLEFSEWGTLFTEAKMTNALLDRLIHHCHMLETGNESYRFKHRNLEHHHHHH,failed
19,MLDNRPIGVFDSGIGGLTIVKNLMSILPNEDIIYFGDIARIPYGTKSRATIQKFAAQTAKFLIDQEVKAIIIACNTISAIAKDIVQEIAKAIPVIDVITAGVSLVDNLNTVGVIATPATINSNAYALQIHKKNPNIEVYSNPCGLFVSMIEEGFVSGHIVELVAKEYLSYFHDKNIQALILGCTHYPIIKESIAKILDVKLIDPSLQASKMLYSLLFENKLLNTTKSNPEYRFYVTDIPLKFRSVGEMFLQTEMQHLEIVSLDSY,not failed
20,MLDPATRTPPSLPDFIIGGAMKSATSSLHHLLSNHEQVYLPDGETHFFCMDDPVQHSGFFFPARAPSQRAPDYDRHGETNLDWYRQLFEPAHPDQCVGDYSSTYLPAPDAPLRIKRLLPDVKLLFMLRNPVDRTYSHYWHRVKTGRAVHGFEYELQHGPSTLLLRSFYKPQLERYFDFFPEDQVKVILFERFVDHTQAVVDEVCSFLGLETAVDVAGVDAHQNRSPVPRWPGLQLLLNYCTTGIETRSEGQLPYPAQPQSSYALQGLVHHLRQLNLTPRRPPPMNDSVRACLEQIFARKNQDLGTLLGVDLTSYWPFLRKQHDEPAETAA,failed
21,MLDQKPKVSVIIPTYNRAHLIPRAIKSVLNQTYLDIEIIIVDDSSTDNTEEIVKDFKDRRLKYIRHNINKGASAARNTGIRESRGKYIAFQDSDDEWFSNKLEKQIEAFADAPPEVGIVYSGFYRIEANRKLYLPSDQLSLKEGNIHNELLKGNFVGTPTVLMKKECFRNQRYFNESLPALEDWELWIELSKYYTFRYIKKPLLCSYSTPNSINLNENNMLKAHEIILLTHLDDFSKNKKNLSEHYYDIGTGLCSIGNFNNGKNYLIKSLKAYCLNFKTISVLFILLFGHNIYYKFRDLHRKIGHRT,failed
